# The nanobody polyreactivity screen of Harvey et al. (2022)
# Experiment: yeast display, Sf9 membrane polyspecificity reagent, FACS + sequencing; frameworks hold sequencing errors
# Method in brief: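 Genes from sorted yeast were amplified by colony PCR, read by MiSeq 2 × 250 sequencing and filtered on CDR length. These cells carried a synthetic nanobody library in Saccharomyces cerevisiae BJ5465 and were sorted by FACS into low and high (top ~1%) gates on anti-HA and streptavidin fluorescence. Polyreactivity is labelled according to the gate of origin.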
row,Sequence,polyreactivity (PSR sort gate)
1,QVQLVESGGGLVQAGGSLRLCCAASGFTFSYYAMGGYRQAPGKERELVAAISRSGGRTYYADSVKGRFTISRDHAKNTVYVQMNSLKPEDTAVYSCAGVYFGSIFVLEYDYWGQGTQVTVSS,high polyreactivity
2,QFQIVESGGGLVQAGGSLRLSCAASGSTFRSYAMGWYRQAPGKERELFARISYRTGSTYYADSVKRRFTISRDNAKNTVYLQMNSLKPEDTVVYYCAAGYIIQRSYFLYDSWGHGTQVTVSS,high polyreactivity
3,QVQLVESRGGLVKAGGSLRLSCAASGRIFRKYDMGWYRQAPGKERELVAAISGTGITYYADSVKGRFTISRDNAKNTVYLQMNRLKPEDTAVYYCARGSKPRAWSWAFASATSIYEYWGQGTQLTVSS,low polyreactivity
4,QVQLVESVGVLVQAGARLRLSCAASGSIFRTNTMGSYRQAPVKERELVAAITAIGDSTYYGDSVKGRFTISRDNAKNTVYLQMNSLKPEDTAVYYCAAEKVSWGYHFYSSSDYWGQATQVTVSS,low polyreactivity
5,QVQLVESGGGLVQAGGSLRLSCAASGSILWLNAMGWYRQAPGKERELVADITRGGSTYYADSVKGRFTISRDNAKNTVYLQMNSLKPEDTAVYYCAAKRGKTYQRFDYWGQGTQVTVSS,high polyreactivity
6,QVQLVESGGGLVQAGGSLRLSCAASGRTFVDNAMGWYRQAPGKKRELVATISSGDSTTYADSVKGRFTISRDNAKNTVYLQMNSLKPEDTAVYYCAAAYGWSWYRYDYWGQGTQVTVSS,high polyreactivity
7,QVQLVESGGGLVQAGGSLRLSCAASGFTFYPYAMGWYRQAPGTERELVAAIRGSGGSTHYADSVKGRFTISRDNAKNTVYLQMNSLKPEDTAVYYCAARIRGYRQYEYYYWGQGTQVTVSS,high polyreactivity
8,QVQLVESGGGLVQAGRSLRLICAASGSTFPSYAMGWYRQAPGNERELVAAINSGGGTNYADAVKGRFTISRDNAKNTVYLQMNSLKPEDTAVFYCAKSRYDYTKTEGGYWGQATQVTVSS,low polyreactivity
9,QDQLVESGGGLVQAGGSLRLSCAASGFTFYAYSMGWYRQAPGKERELVAAITYIGSTYYADSVKGRFTISRDNAKNTVYLQMNSLKPEDTAVYYCAAVKVFLGLGYDYWGQGTQVTVSS,low polyreactivity
10,QVQLVESGGGLVQAGGSLRLSCAASGRIFARNAMGWYRQAPGKERELVAAITYSGGSTYYADSVKGRFTISRDNAKNTVYLQMNSLKPEDTAVYYCAAETSNRGRRYYYWGQGTQVTVSS,high polyreactivity
11,QVQLVESGVGLVQAGGSLRLSCAASGRTFFGYAMGWYRQAPGKEREFVARISWRGTSTTYADSVKGRFTISRDNAKNTVYLQMNSLKPEDTAVYYCAASQYGLRVYFTVGYWGQGTQVTVSS,high polyreactivity
12,QVQLVESGGGLVQAGGRLRLSCAASGSIFGANTMVWYRQAPGKERELVAAISSGGNTYYADSVKGRFTISRDNAKNTVYLQMNSLKPEDTAVYYCNAQTRYRYQYGYLGGTGYNYWGQGTQVTVSS,low polyreactivity
13,QVQLVESGGGLVQAGGSLRLSCAASGFTFVTNAMGWYRQAPGKERELVAAISSSGARTYYADSVKGRFTISRDNAKNTVYLQMNSLKPEDTAVYYCAVYYYDFTSTEYGYWGQGTQVTVSS,high polyreactivity
14,QVQLVESRGGLVQAGGSLRLSCAASGRIFGDNAMGWSRQAPGKEREFVATINGSGGSTYYADSVKGRFTISRDNAKNTVYLQMNSLKPEDTAVYYCFVYGYVPYNYWGQGTQVTVSS,low polyreactivity
15,QVQLVESGGGLVQAGRSLRLSCASSGSTFRVYDMGWYRQAPGNERELVASISYSVGSTYYADSVKGRFTISRDNAKNTVYLQMITLKPEDTEVYFCAARPSYQPSSLARYDYWGQGTQVSVSS,low polyreactivity
16,QVQLVESGGGLVQAGGSLRLSCGASGRTFGHYDLGLYRQEPGTEREFVANIRQSTGSTDYADSVKGRFTISRDNAKITVYLQMNSLKPEDTEVYYCASPWYYYVEHRQGSYILDYWGQGTQVTVSS,low polyreactivity
17,QVQLVESGGGLVQAGGSLRLSCAASGLTFLNNAMGWYRQAPVKERELVAAISVGGSTNYADSVKGRFTISRDNAKNTVYLQMNSLKPEDTAVYYCAAVYTSASYGSWGQGTQVTVSS,low polyreactivity
18,QVQLVESGGGLVQAGGSLRLSCAASGITFVLYAMGWYRQAPGKERELVAAISSGGRTKYADSVKGRFTISRDNAKNTVYLQMNSLKPEDTAVYYCATKTRYLYPAYYYWGQGTQVTVSS,high polyreactivity
19,QVQLVESGGGLVQAGGSLRLSCAASGLIFRWYAMGWYRQAPGKEWELVAAISRRGGTTNYADSVKGRFTISRDNAKKTVYLQMNSLKPEDTAVYYCAADYQSVGGAEYDYWGQGTQVTVSS,high polyreactivity
20,QVQLVESGGGLVQAGGSLRLSCAASGSIFIYNAMGWYRQAPGKERELVAAISSSGGSTYYADSVKGRFTISRDNAKNTVYLQMNSLKPEDTAVYYCAARTYYVRGLGGRTGMDYWGQGTQVTVSS,low polyreactivity
21,QVQLVESGGGLVQAGGSLRLSCAASGLIFDDYAMGWYRQAPGKERELVAAISLSGGSTFYADSVKGRFTISRDNAKNTVYLQMNSLKAEDTAVYYCAAQARRAYVQTRMYYWGQGTQVTVSS,high polyreactivity

row,Sequence,polyreactivity (PSR sort gate)
1,QVQLVESGGGLVQAGGSLRLSCAASGFIFRYYTMGWYRQAPVKERELVASITRSGGSTYYADSVKGRFTISRDNGKNTVYLQMNSLKPEDTAVYYCAAVVYLRFRNSYWGQGTQVTVSS,high polyreactivity
2,QVQLVESGVGLVQAGGSLRLSCAASGRIFYNNVRGWYRQAPGKERELVAGISGNGGSTYYPDSVKGRFTISRDNAKNTVYLQMNSPKPEDTAVYYCAARSSFRTLIFYQKFDYWGQGTQVTVSS,low polyreactivity
3,QVQLVESGGGLVQAGGSLRLSCDDSGSTFVINDMGWYRQAPGKERELVAAITWGSGSTSYADSVKGRCTISRDNAKNTVYGQMISLKPEDTEVYYCAADVYLGLFGYYAEYNDYWGQGTQVTVSS,low polyreactivity
4,QVQLVESGGGLVQAGGSLRLSCAASGITFGRNTMAWYIQAPGKERELVAAIDSGGNTYADSVKGRFTISRDNAKITVDLQMNSLKQEDTSVYYCAVVWVWDVWFLVYYWGQGTQVTVSS,low polyreactivity
5,QVQLEESGGGLVQAGASHRLSCAASGITFYWYAMGSYRQAPGKERELVAGISQSGSLTYYADSVKRRFTISRDNAKNTVYLQMKSLKPEDSAVYYCAARVRWSPSRTFEYWGQGSQVTVSS,high polyreactivity
6,QVQLVESGGGLVQAGGSLRLSCAASGYIFDRYAMGWYRPAPGKERELVAAISVGGGTTYYADSVKGRFTISRDNAKNTVYLQMNSLKPEDTAVYYCAARSDSYAPRRGYWGQGTQVTVSS,high polyreactivity
7,QVQLVESGGGLVQAGGSLRLSCAASGRIFYKYVMGWYRQAPGKERELVAAINRSGGTTYYADSVKGRFTISRDNAKNTVYLQMNSLKPEDTAVYYCNATLPDYWPYYYYQGGDDYWGQGTQVTVSS,low polyreactivity
8,QVQLVESGGGLVQAGGSLRLSCAPSGSIFQFYAMGWYRQAPGKESELVAGINTSGGSTYYADSVKGRFTISRDNAKNTVYLQMNSLKPEDTEVYYCMARSRYDTGRQRGYDYWGQGTQVTVSS,low polyreactivity
9,QVQLVESGRGLVQAGGSLRLSCAPSGLIFRYYAMGWYRQAPGKEREFVAAISGRGASTYYADSVKGRFTISRDNAKNTVYLQMNSLKPEDTAVYYCATYFPSAVVAFHMDYWGQGTQVTVST,high polyreactivity
10,QVQLVESGGGLVQAGGSLRLSCAASGSTFGKNAMGWSRQAPGNERELVAGITSGGSTYYADSVKGRFTISRDNAKNTVYLQMNSLKPEDTAVYYCAAVRRWKYDWGQGTQVTVSS,high polyreactivity
11,QVQLVESGGGLVQAGGSLRLSCAPSGSIFGINARAWYRQAPGKERELVAAISSGGSTNNADSVKGRFTISRDNAKNTVYFQMNSLKPEDTAVYYCAARLYYVRYNYWGQGTQGTVSS,high polyreactivity
12,QVQLVESGGGLVQAGGSLRLSCAASGIIFGYNAMGCYRQAPGKERELVASIDVSGGITYYADSVKGRFTISRDNAKNTVYLQMNSLKPEDTAVYYCAAYRYGSRYGYEYWGQGTQVTVSS,high polyreactivity
13,QVQLVESGGGLFQAGGSLRLSCAASGTFYIYAMGWYRQAPGKERELVAGISFSGGSTYYADSVKGRFTISRDNAKNTVYLQMNSLKPEDTAVYYCAAELYVLPYDYWGQGTQVTVSS,high polyreactivity
14,QVQLVESGGGLVQAGGSLRLSCAASGRTFYRYAMGWYRQAPGKEREFVAAISNGGSNTRYADSVKGRFTISRDNATNTVYLQMNSLKPEDTAVYYCAASAYQHYNWGQGTQVTVSS,high polyreactivity
15,QVQLVESGGGLVPAGGSLRLTCAASGSTFGDYAMGWYRQAPGKERELVAAINFSDGSTYYADSVKGRFTISRDNAKNTVYLQMNSLKPEDTAVYYCAAYTYYDGVYGFDYWGQGTQVTVSS,low polyreactivity
16,QVQLVESGGGLVQAGGSLRLSCAASGFIFLYYAMGWYIQAPGKERELVAAITTRGGRTYYADSVKGRFTISRDNAKNTVYLQMNSLKPEDTAVYYCAADHLYWGLEYESWGQGTQVTVSS,low polyreactivity
17,QLQLVESGGGLVQAGGSLRLSCAASGRTFFKYVMGWYRQAPGKERELVAAISYRSGSTYYADSVKGRFTISRDNAKNTVYLQMNSLKPEDTAVYYCAKEPPPVKGDYWGQGTQVTVSS,low polyreactivity
18,QVQLVESGGGLVQAGGSLRLSCAASGSTFFIYAMGWYRQAPGKERELVAAISGSGGTTYYADSVKGRFTISRDNAKNTVYLQMNSLKPEDTAVYYCNKDYYPGSYDYWGQGTQVTVSS,low polyreactivity
19,QVQLVESGGGLFQAGGSLRLSCAASGSTFRFNAMGWYRQAPGKERELVAAISRSGGTTYYADSVKGRFTISRDNAKNTVYLQMNSLKPEDTAVYYCNAQWWRYWPSQVIFDYWGQGTQVTVSS,high polyreactivity
20,QVQLVESGGGLVQAGGSLRLSCAASGFIFRVYAMGWYRQAPGKERELVAAITRAGNTYYADSVKGRFTISRDNAKNTVYLQMNSLKPEDTAVYYCNNYHYWASPMNYWGQGTQVTVSS,high polyreactivity
